This series in a line: label from the status in PepcDB records.

The values below come from a protein production outcome set (Wang et al. 2014).

As to “MRDAYLMMVLMDALKEIFDLKEILKSPIRNKKVILFVSLVFILSLVLLYILVVNIKYFSYLGDIIFQNFQKHVENLKITLNEDNLHIILAIWKNNLTVCILNYILGIFSLFVIAVNSYILSYVLYKFGAESFIYLVLPHGIIEIPALILSASGGVLFNMGLVNFLINIKFGTKREVLYYIKESLKLLILSIILFIVAGIVEGTITFKIAKIMFS”, the protein production result is “failed”.

Regarding “MRDLDREETYLVDRTGLALELRDLVGTGPVPGEAYPGPHAALGYGEGQFAALLSGLPDWGEEGTLFLLEGGYDLGEAAGMALLAETGRARVVRVGFRPGVEVHIPPSPLAPYRYLRFLLLATGREEVLRSVDEALLEERRRLGPEVPVEENPAKFLAYTLLERLPLFYSPLFRPLEGAVQTLFARVAKSLSLTPPPSALEFFLVGLEARHEQGDPLAAVLLGPGEEAALAKEILESRVDALAEVPATGANRLAQVMALWYRMAWTAYYLALLYGVDPGDHGLLERLREVT”, the protein production result is “not failed”.

Turning to “MRDLLNDLSEGLSHPDPILRAQIQMQKPLPKRFYKDVTVADVEEGGFTILLDGKPLRTPAKKPLVAPSRALADLLRDEWDAQKEVVNPVVMPVSRHVNTAIDGIASDTQAVFEDILRFSSSDLLCYRAGDPEALVARQTDYWDPVLDWATNVLGARFILVEGVMHRDQPREAIAAFAVTLKKYDTPIALAALHTMTSLTGSAILALALAEGELTLEEAWALAHLDEDWTAEQWGEDEEALERRAVRLIDMRAALNVLESLKSASLEHHHHHH”, the protein production result is recorded as “failed”.

As to “MRDSFGDWAEKFLKSKEADGVSVSQLNSYKNYCRNHLSPLYMKSLSEILPADIQSIINETKLAKNTLKAIRNTASQIFRLAIENRAIDFNPADYVRIPKIALEHHHHHH”, the protein production entry is reported as “not failed”.

Take “MREGLRVLNSCNKVRGIFTLTQKTIKTFCFILAILVLIIFAVVFHNHSLEIIDYIDDLGWLAPVLFLITYCLATLLLLPTMVLTLAGGAVFGPVFGTLLNLLGATSGAALAFLITRHLVYDWFSTKKGEKLNKLIAGVDEKGWVFVAFLRLFPIVPFNLVNYGLGVTGISFRLYLLTTFIFLIPAEIIYTYFGYVGMDALTRPGHLYRNGGIFLTGLAIFFLLVIRIMKKR”: the protein production entry is “failed”.

Take “MREIPLVSVALATYNGERYLRRQLDSVLAQTYRNIEIVVSDDCSRDGTVAILEEYRRAHGITFRVNERNLGFVRNFERALAGCRGEFIALSDQDDIWLPEKIETLVREIGPHSLIYTDALLIDGDDQPLPGSLVEVSGVRPVSGTCFEYFVCNNCVTGCTAMLRRDLLATALPIPEAETYHDWWLAVAASRRNGVVYHAAKLTEYRQHAHNYTGANVRAGLPARIAAHLMGKTAAEKRGYYELLANRARRYRAMADRLNLTPAERSFLEEIGEYAESLLSGGNRMKTFALALKYRETLFPAAGRWEKLLFVFSKLIAARAILEHHHHHH”: the protein production result is “not failed”.

For the sequence “MRELLVFLHILSAATWIGAALWVPGDVKRTVALGRPFVEQLAARARPALKLDLYAGFAVLVTGVLLIGVDGGHPRTGILVGFAATLARLLVVGFASMPAWRRVEGAVASGDLAAATAPARRLAMLGGIGHALWAIALAGMVF”, the protein production entry is “failed”.

On to “MRELNRLSEEITHILAAGEVVERPASCLKEVIENSIDAGASLIDIKLEKGGIKKIEVYDNGKGIHSDDIEYVFERHTTSKIKSVDDIFKITTMGFRGEALCAISSVSKVTLISRHYEQEQGCKVEVEGGKVLSKTIYPFEKGTRITIEDLFYNTPARLKFLKSPSAEQKYCIEVVEKIAICYPEISFRMQVDNKRQLFTPGDSKVESAIASVFGSEILKNLIDFSHQEEGLKVWGFFVNPVLSKSTRSGYHFYVNRRFIRSKLLSTCIDEAFKNSILTGRFPIVFLFIEINPIDIDVNVHPAKLEIKFKDERYVYNTVYKTVSSTLQSEKMIPKPTLDNLYLPQSVQDVKMVRNLWSYTQEQQSKEKAFQEDFNEFLKIEEQLDFSKVEVGKESKDVITVFSEEFNVETYKIVGYAFDTYIIVQKEDSLYLIDQHAVHERRLFELLKEEIFRNKIQRQILLSPIVIELPISQKEFALENVHIFEKLGFEIDDFGKNEIVVRTYPLLFEGAVDKFFILDIIEMIYNESVEKGITHFSEELLKKIACRAAVKGNMNISDLEKEEIVKLVLVEKKIFNCPHGRPVVIEIQKREIEKMFKRIV”, for which the protein production entry is reported as “failed”.

Turning to “MRERTEARRRRIEEVLRRRQPDLTVLLENVHKPHNLSAILRTCDAVGVLEAHAVNPTGGVPTFNETSGGSHKWVYLRVHPDLHEAFRFLKERGFTVYATALREDARDFREVDYTKPTAVLFGAEKWGVSEEALALADGAIKIPMLGMVQSLNVSVAAAVILFEAQRQRLKAGLYDRPRLDPELYQKVLADWLRK”, the protein production entry was “not failed”.

Take “MREVNEGASAYPGQRATGESIERGGGGLSVSDLLAKVMTAAAPQPTGSGTESGPGAGPTAGPSLDVDGLAVAVAATAGRYLPGGHLSPDSDFFDAGGTSVHAVELVAELERELGMEIALDDVFADARPRTLARRWLSAGGAPAAHSATPATPEPTAAGVAATGVTAIGATAAGAAVAGATAAGVAATPGLLPLSAAGTRPAPAPSGLPVPSPRTPPAVAATPPPGSGDAPYSTARREDLDQILADLALADRLPWTGAPEPLPPRRILLTGATGFLGSHMLLDLLRHSDAHVYCLVRAADEEAATARLGQALKGYELPWSSEVRRRVTVLPGDIRHPRLGLSDDLWNTLAHELDSVVGVAAAVDFLRGYPSLRQSNVLGALTLAELAATGRPKPLHHISSIAVFNEVGITAMGEDDPLARVDRLVAGYDQTKWTAEVALRRARDHGLLVTAMRPGGIGGHTRTGAYNPQDLSSGLISAFGRFRTVPAFRYLNAAPVDWVSRVAVGVICEPDAWGYDYNLTGVPNTLDDVVQDMALGGMHVRVQDWDEWRTDALARLEADPVPELAFLTRVLRSPTALKLCEATLKGPAAHDDRTAALVEALGLGPAARYDAQAQLRTFERLARDGLARLPHKDDQPYLWFSERTEGGVGPVGAPADTPCSMALTLSIASMYQLVKERRVDVSGELVCAAVHPEPLTVERGDVWIRPEEGIPEQHGMRHQLLRYRLELRDTDGGHWWLEGHKYARARRDVWRQTRALTVEIGRAGEPARLTGEVVVPADSYVRDQIDGIKVDPRLTSQEKRAAKLTWLAWFGLEVGRGLLGPFARVAADLLDLRRNPTLTERNR”: the protein production result was “failed”.

With “MREVSLRIDRYLVNTRITPNQLTYLMTVCGVLAAPALLVPGIWGAVLGVVAVQLYLLLDCVDGEIARWRKQYSLGGVYLDRVGAYLTDAAVLVGLGLRAADIWGTGRIDWLWAFLGTLAALGAILIKAETDLVGVARHQNGMPPVKEAASEIRSSGMALARRAAGALKFHRLILGIEATLLILVLAIVDQARGDLFFTRLGTAVLAGIALLQTLLHLVSILASSRLK”, the protein production result is “failed”.

Take “MREYNNPSDFKSFHDFVASYMKTYSRRLEIGTFRHHKSCMRKFKEYCEGLQFHELTEDFLRDYLIYMKKTLCNADSTAQRNLSTIKIYVSAAIKKGYMENDPFKDFGVKRLEHHHHHH”: the protein production result is listed as “not failed”.

For “MRFSRARTEEVLRALVHEIRAERLTFMAGSIAYHAFLSILPLLLLVLTFVQRTENVTLRASIVGIMEAVLTTQASGIIQQGLTEADASVSALGVGFLLWGSLRIFRGLDTAFSDIYETGASNTFLDQLGDGLVLLVTVAVAILSASALGSVLPETGSGPLWTVASGLVRAAGLFVVFYPMYYIFPDTDVSPLEAVPGVAFAAIGLTVAQVLFTAFKSGSTGGNIIASILVLLSWLYIIGLVILLGAAINAVLSNRSADVDIDPVVGEHSQQNTIRTTTMSREALLAELETLADRFQQGQGTITVEIADERTDIDCPETATVDRSSDVFGLDQSVALTLRWWPNEK”, the protein production entry is “failed”.

With “MRFTNTILMTTFTALLAVALVAGCASKKKDETDPFFSKWQSLASNSTGFSPPKVVRDVKPKTLLRQEEVTAKQEEQKRPLPQMPVTLKLHNVDVGVALRSLAAAANTSIIVSPGVKGTASINVNRVPWEDVFKGILASNALDFAWRGELIQVMTLADKKAEVERELLETQRMAQQLKGRKVGPLVTSVIEVRYAEAAELKKNLEGFLSKDEQNKPVGAVVVDTHTNSLIVQAVEDDLSKIITLVNNLDKPRAQILLKAHIVEATRDTARDLGIQWGGVGRSGNMGDGNRMWVTPGGSGPTKPTDPQAGGGVPVIPPGGLSGQGFGMNFPVNKAGKTAMGSLGLMFGTIGGNMLEVQLSALQDNGKLNILSSPSISTLDNQMAFTENGEKVPYVSTNAQGDREVKFEDAVLRLEITPHVIDESNLKLKVQVKKDEVDLTRTVEGNPFIIKKQTETTLIVQDGETVVISGLTKERSSTRRQGLPYLQDVEGIGALFGNDSKANKLEDVLIFITPAILPYREETSVN”, the protein production result is “failed”.

As to “MRGAESLVTLNHKILRPCRKLLIRITKSCPRRHNRHLKLKKASSSSSTASGNKVTKVVALFFLSFHKKKQKKEKMKRLNELRSFSHAVNDQKKKAPKQESSKKVFPSRLTMSWLGQGKGNNNNTQEVPQEHDARRDSTSAFIP”, the protein production entry was “failed”.

As for “MRGIAIIFIVLGHSIYNSGEGFPVLLENLLRGGTALFVFISGYFFHRIFYKDFDYGKFMKNKVQNVLYPFLFVSIVGLFCLSLRWVFMEHQSLEQVLLSIFYTVRNGYILYPHWYIPFIMAVFLFSPVFLWFIRCSQQMRWTLFVLSCVVAILLHRPIGNVNFIHSVVYYLPFYLIGILYSQDEHIVTRYGSILSALAGIFLVVSLVEQSYIVQHVGNYHKAPFEYNGIDWQFIQKLSLCVLVLNFCDWLSQRSRLPWLIETAEMSFAIFFIHPLFDMLFNTTATIFRYRFPPDSWVTSILFSFGIFLFLMVSSMMTARLIKKRLGNRSRLFIGW”, the protein production entry is “failed”.

With “MRGILRMTVLAAAVFGVAGNALAEDWKLAKDEDGVKVYLSSVQGSKYKAYRGVTDIKADVATIEALQEDVKGSCKWIHACAEMKLLKQEGADAWTYSKIDMPWPVTGRDVVIHVTTEKTADGTVIRHLKADPTYIPEEKGQIRVPKLVGEWKLQPKGQGVTEVTYQVETEPGGSIPSWLANSFVVDAPLNTLKGLRSAAEKR”, the protein production result is “failed”.

Turning to “MRGKQSHMSCEHYSNNCLVRFECCSSLYPCRLCHDKAEAHRANRYEVSQIVCGTCNLLQPKTQTCLQCLAAVSKYFCSKCNLWDSSDDQIFHCDGCNVCRRGDPKSSFHCDICQTCLVTRGPRDHTHVENTASGNCPICAEEMSESMEVLVLLRCGHSLHERCFNEFIKETYTCPMCSKPIGDTSIINRKVECLLGMEPPSPEQSPKNIAKCTNCNNLSKCGAIQNKCPFCGLRGVVDAAQEKNVKSQCLKPEE”, the protein production entry is “failed”.

For “MRGLAACYSEHAIKVSDTYCSGPSNHSYISPTLPPSIPDTVTTTYRSNLPSSDKPVSVSLTWSDNLTVVISTPPKSYSVSLRKPKGSRKLTSSSGSLNAEILWDLSEAEYENNGPEPIRRFFVVVVVNSEITLGVGDVDHERDTSSSSSWRVSKTERFSGTCWLTTKAQFSDVGRKHEIQIQCGGGGGGGGEEGYLWKVKSPETMSVYVDKRKVFSVKKLKWNFRGNQTMFFDGMLIDMMWDLHDWFYKETLSSVSTSSSSKTASSSSSSSTSSSTPPCAVFMFRRRSGLDSRLWIDEDEQESEMKKNIGSRDEKHSFSLIICASKK”, the protein production entry is “failed”.

Take “MRGLSLSPVVLPEVRREAGVELRKARLEDVDAIYWLIRYWAEKGLMLVRSHSHLYENIRDFWVLEDEDGQIVGTVALHVLWRDLAEIRGLAVHPTRQGQGLGRWLVLGAEREARDLGLPRVFAWTLQVNFFRALGYRVTSR”: the protein production result is reported as “failed”.

Take “MRGLSRNSGAAAIFAILLILAVHNWSVAVSSQSTEFAGDFPPFETECRGTIAECSVSAALGDGGDLFYGGGEMGEEFEMDSEINRRILATRRYISYGALRRNTIPCSRRGASYYNCRRGAQANPYSRGCSAITRCRRS”: the protein production result is “failed”.
